Measured values from US12522842B2, “Glutamine synthetase mutant having glufosinate resistance and application thereof and cultivation method therefor” (GEVOTO LLC, priority 2019, dated 2026).

Test system: glutamine synthetase-deficient Escherichia coli
Test: Growth of glutamine synthetase-deficient E. coli transformed with GS mutants in M9 medium containing glufosinate
Format: cell-based
Conditions: for growth of transformed GS-deficient E. coli (normal GS enzymatic activity): medium containing 0 mM glufosinate
Source text: According to the sequences of the nucleic acid molecules provided in Example 4, the nucleic acid sequences encoding rice GS mutants OsA, OsC, OsD, OsE, OsF, OsG, OsH, OsI, OsK, OsP, OST, OsV, and OsY were synthesized using chemical synthesis method. Restriction digestion sites (Pac1 and Sbf1) were introduced at both ends thereof, and after restriction digestion, they were linked under the action of ligase to an expression vector (such as pADV7 vector, whose structure is shown in FIG. 4) that was subjected to the same restriction digestion treatment. Then, glutamine synthetase-deficient Escherichia coli was transformed with the resultant. After verification, positive clones were picked up and inoculated in M9 medium containing different concentrations of glufosinate to grow, and the growth status of defective Escherichia coli was observed.
With wild-type rice GS (its amino acid sequence shown in SEQ ID NO. 1 and its encoding gene shown in SEQ ID NO. 4) as a negative control, the glufosinate resistance for the GS mutant OsA (S59A, wherein the amino acid S at site 59 of the rice GS is mutated into A), OsC (S59C), OsD (S59D), OsE (S59E), OsF (S59F), OsG (S59G), OsH (S59H), OsI (S591), OsK (S59K), OsP (S59P), OsT (S59T), OsV (S59V), OsY (S59Y) was detected.
With reference to the detection method of Experimental Example 1, glufosinate resistance of the rice GS mutant OsGR (S59G and H296R, the amino acid S at site 59 of rice GS is mutated into G and the amino acid H at site 296 is mutated into R), the wheat GS mutant TaGR (S59G and H296R, the amino acid S at site 59 of wheat GS is mutated into G and the amino acid H at site 296 is mutated into R), the soybean GS mutant GmGR (S59G and H296R, the amino acid S at site 59 of soybean GS is mutated into G and the amino acid H at site 296 is mutated into R) provided in Example 2 was verified.
With reference to Experimental example 1, the glufosinate resistance of rice GS mutants OA, OD, OE, OG, OI, OK, OM, OP, OQ, OR, OS, OT, and OV provided in Example 3 was detected according to the following method.
With wild-type rice GS as a negative control, the glufosinate resistance of GS mutants OA (H296A, amino acid H at site 296 of rice GS is mutated into A), OD (H296D), OE (H296E), OG (H296G), OI (H2961), OK (H296K), OM (H296M), OP (H296P), OQ (H296Q), OR (H296R), OS (H296S), OT (H296T), OV (H296V) was detected.

[1] = medium containing 10 mM glufosinate
[2] = medium with 50 mM/100 mM glufosinate

B1: OsK (protein)
chain: MASLTDLVNLNLSDTTEKIIAEYIWIGGSGMDLRSKARTLSGPVTDPSKLPKWNYDGSKTGQAPGEDSEVILYPQAIFKDPFRKGNNILVMCDCYTPAGEPIPTNKRHNAAKIFSSPEVASEEPWYGIEQEYTLLQKDINWPLGWPVGGFPGPQGPYYCGIGADKSFGRDIVDSHYKACLYAGINISGINGEVMPGQWEFQVGPSVGISAGDQVWVARYILERITEIAGVVVSFDPKPIPGDWNGAGAHTNYSTKSMRNDGGYEIIKSAIEKLKLRHKEHISAYGEGNERRLTGRHETADINTFSWGVANRGASVRVGRETEQNGKGYFEDRRPASNMDPYIVTSMIAETTIIWKP
modifications: OsK
growth of transformed GS-deficient E. coli (normal GS enzymatic activity): could normally grow
growth of transformed E. coli (glufosinate resistance) [1]: significantly superior to that of the negative control
growth of transformed E. coli (glufosinate resistance) [2]: significantly grew

B2: OsD (protein)
chain: MASLTDLVNLNLSDTTEKIIAEYIWIGGSGMDLRSKARTLSGPVTDPSKLPKWNYDGSDTGQAPGEDSEVILYPQAIFKDPFRKGNNILVMCDCYTPAGEPIPTNKRHNAAKIFSSPEVASEEPWYGIEQEYTLLQKDINWPLGWPVGGFPGPQGPYYCGIGADKSFGRDIVDSHYKACLYAGINISGINGEVMPGQWEFQVGPSVGISAGDQVWVARYILERITEIAGVVVSFDPKPIPGDWNGAGAHTNYSTKSMRNDGGYEIIKSAIEKLKLRHKEHISAYGEGNERRLTGRHETADINTFSWGVANRGASVRVGRETEQNGKGYFEDRRPASNMDPYIVTSMIAETTIIWKP
modifications: OsD
growth of transformed GS-deficient E. coli (normal GS enzymatic activity): could normally grow
growth of transformed E. coli (glufosinate resistance) [1]: significantly superior to that of the negative control
growth of transformed E. coli (glufosinate resistance) [2]: significantly grew

B3: OsG (protein)
chain: MASLTDLVNLNLSDTTEKIIAEYIWIGGSGMDLRSKARTLSGPVTDPSKLPKWNYDGSGTGQAPGEDSEVILYPQAIFKDPFRKGNNILVMCDCYTPAGEPIPTNKRHNAAKIFSSPEVASEEPWYGIEQEYTLLQKDINWPLGWPVGGFPGPQGPYYCGIGADKSFGRDIVDSHYKACLYAGINISGINGEVMPGQWEFQVGPSVGISAGDQVWVARYILERITEIAGVVVSFDPKPIPGDWNGAGAHTNYSTKSMRNDGGYEIIKSAIEKLKLRHKEHISAYGEGNERRLTGRHETADINTFSWGVANRGASVRVGRETEQNGKGYFEDRRPASNMDPYIVTSMIAETTIIWKP
modifications: OsG
growth of transformed GS-deficient E. coli (normal GS enzymatic activity): could normally grow
growth of transformed E. coli (glufosinate resistance) [1]: significantly superior to that of the negative control
growth of transformed E. coli (glufosinate resistance) [2]: significantly grew

B4: OsP (protein)
chain: MASLTDLVNLNLSDTTEKIIAEYIWIGGSGMDLRSKARTLSGPVTDPSKLPKWNYDGSPTGQAPGEDSEVILYPQAIFKDPFRKGNNILVMCDCYTPAGEPIPTNKRHNAAKIFSSPEVASEEPWYGIEQEYTLLQKDINWPLGWPVGGFPGPQGPYYCGIGADKSFGRDIVDSHYKACLYAGINISGINGEVMPGQWEFQVGPSVGISAGDQVWVARYILERITEIAGVVVSFDPKPIPGDWNGAGAHTNYSTKSMRNDGGYEIIKSAIEKLKLRHKEHISAYGEGNERRLTGRHETADINTFSWGVANRGASVRVGRETEQNGKGYFEDRRPASNMDPYIVTSMIAETTIIWKP
modifications: OsP
growth of transformed GS-deficient E. coli (normal GS enzymatic activity): could normally grow
growth of transformed E. coli (glufosinate resistance) [1]: significantly superior to that of the negative control
growth of transformed E. coli (glufosinate resistance) [2]: significantly grew

B5: OsF (protein)
chain: MASLTDLVNLNLSDTTEKIIAEYIWIGGSGMDLRSKARTLSGPVTDPSKLPKWNYDGSFTGQAPGEDSEVILYPQAIFKDPFRKGNNILVMCDCYTPAGEPIPTNKRHNAAKIFSSPEVASEEPWYGIEQEYTLLQKDINWPLGWPVGGFPGPQGPYYCGIGADKSFGRDIVDSHYKACLYAGINISGINGEVMPGQWEFQVGPSVGISAGDQVWVARYILERITEIAGVVVSFDPKPIPGDWNGAGAHTNYSTKSMRNDGGYEIIKSAIEKLKLRHKEHISAYGEGNERRLTGRHETADINTFSWGVANRGASVRVGRETEQNGKGYFEDRRPASNMDPYIVTSMIAETTIIWKP
modifications: OsF
growth of transformed GS-deficient E. coli (normal GS enzymatic activity): could normally grow
growth of transformed E. coli (glufosinate resistance) [1]: significantly superior to that of the negative control
growth of transformed E. coli (glufosinate resistance) [2]: significantly grew

B6: OsV (protein)
chain: MASLTDLVNLNLSDTTEKIIAEYIWIGGSGMDLRSKARTLSGPVTDPSKLPKWNYDGSVTGQAPGEDSEVILYPQAIFKDPFRKGNNILVMCDCYTPAGEPIPTNKRHNAAKIFSSPEVASEEPWYGIEQEYTLLQKDINWPLGWPVGGFPGPQGPYYCGIGADKSFGRDIVDSHYKACLYAGINISGINGEVMPGQWEFQVGPSVGISAGDQVWVARYILERITEIAGVVVSFDPKPIPGDWNGAGAHTNYSTKSMRNDGGYEIIKSAIEKLKLRHKEHISAYGEGNERRLTGRHETADINTFSWGVANRGASVRVGRETEQNGKGYFEDRRPASNMDPYIVTSMIAETTIIWKP
modifications: OsV
growth of transformed GS-deficient E. coli (normal GS enzymatic activity): could normally grow
growth of transformed E. coli (glufosinate resistance) [1]: significantly superior to that of the negative control

B7: OsC (protein)
chain: MASLTDLVNLNLSDTTEKIIAEYIWIGGSGMDLRSKARTLSGPVTDPSKLPKWNYDGSCTGQAPGEDSEVILYPQAIFKDPFRKGNNILVMCDCYTPAGEPIPTNKRHNAAKIFSSPEVASEEPWYGIEQEYTLLQKDINWPLGWPVGGFPGPQGPYYCGIGADKSFGRDIVDSHYKACLYAGINISGINGEVMPGQWEFQVGPSVGISAGDQVWVARYILERITEIAGVVVSFDPKPIPGDWNGAGAHTNYSTKSMRNDGGYEIIKSAIEKLKLRHKEHISAYGEGNERRLTGRHETADINTFSWGVANRGASVRVGRETEQNGKGYFEDRRPASNMDPYIVTSMIAETTIIWKP
modifications: OsC
growth of transformed GS-deficient E. coli (normal GS enzymatic activity): could normally grow
growth of transformed E. coli (glufosinate resistance) [1]: significantly superior to that of the negative control
growth of transformed E. coli (glufosinate resistance) [2]: significantly grew

B8: OsA (protein)
chain: MASLTDLVNLNLSDTTEKIIAEYIWIGGSGMDLRSKARTLSGPVTDPSKLPKWNYDGSATGQAPGEDSEVILYPQAIFKDPFRKGNNILVMCDCYTPAGEPIPTNKRHNAAKIFSSPEVASEEPWYGIEQEYTLLQKDINWPLGWPVGGFPGPQGPYYCGIGADKSFGRDIVDSHYKACLYAGINISGINGEVMPGQWEFQVGPSVGISAGDQVWVARYILERITEIAGVVVSFDPKPIPGDWNGAGAHTNYSTKSMRNDGGYEIIKSAIEKLKLRHKEHISAYGEGNERRLTGRHETADINTFSWGVANRGASVRVGRETEQNGKGYFEDRRPASNMDPYIVTSMIAETTIIWKP
modifications: OsA
growth of transformed GS-deficient E. coli (normal GS enzymatic activity): could normally grow
growth of transformed E. coli (glufosinate resistance) [1]: significantly superior to that of the negative control

B9: OsE (protein)
chain: MASLTDLVNLNLSDTTEKIIAEYIWIGGSGMDLRSKARTLSGPVTDPSKLPKWNYDGSETGQAPGEDSEVILYPQAIFKDPFRKGNNILVMCDCYTPAGEPIPTNKRHNAAKIFSSPEVASEEPWYGIEQEYTLLQKDINWPLGWPVGGFPGPQGPYYCGIGADKSFGRDIVDSHYKACLYAGINISGINGEVMPGQWEFQVGPSVGISAGDQVWVARYILERITEIAGVVVSFDPKPIPGDWNGAGAHTNYSTKSMRNDGGYEIIKSAIEKLKLRHKEHISAYGEGNERRLTGRHETADINTFSWGVANRGASVRVGRETEQNGKGYFEDRRPASNMDPYIVTSMIAETTIIWKP
modifications: OsE
growth of transformed GS-deficient E. coli (normal GS enzymatic activity): could normally grow
growth of transformed E. coli (glufosinate resistance) [1]: significantly superior to that of the negative control
